Data on four molecules can be found in patent CN116836277A.

Where a chain is given by its changes, count along the chain named.

The labels stand for the following.
B1: Anti-E2 7A4mut2 (antibody, V domains shown)
VH: QVRLQESGPSLVKPSQTLSLTCTISGFSISGNAITWVRQAPGEVPEWLGGVDNRGSAYYSPALRSRLSITRDTSKSQVSLSLYGVTVEDTAVYYCGRGVWGVDGAGYAHDYWGPGLLVTVST
VL: QAVVTQLSSVSGSLGQRVSLTCSGSSSNVGSHSVDWFQKLSESGLRIVIYGTRNRPSGVPDRFSGSKSGNTATLTITSLQTEDEADYYCATSDSTTMTYIFGDGTRLTALG
B2: Anti-E2 7A4mut4 (antibody, V domains shown)
VH: B1 VH with I29L
VL: B1 VL with I49L
B3: Anti-E2 7A4mut1 (antibody)
heavy: QVRLQESGPSLVKPSQTLSLTCTISGFSLSGNAITWVRQAPGEVPEWLGGVDNRGSAYYSPALRSRLSITRDTSKSQVSLSLYGVTVEDTAVYYCGRGVWGVDGAGYAHDYWGPGLLVTVSTASTTPPKVYPLTSCCGDTSSSIVTLGCLVSSYMPEPVTVTWNSGALTSGVHTFPAILQSSGLYSLSSVVTVPASTSGAQTFICNVAHPASSTKVDKRVGLSSDYSKCSKPPCVSRPSVFIFPPKPKDSLMITGTPEVTCVVVDVGQGDPEVQFSWFVDNVEVRTARTKPREEQFNSTFRVVSALPIQHDHWTGGKEFKCKVHSKGLPAPIVRTISRAKGQAREPQVYVLAPPQEELSKSTLSVTCLVTGFYPDYIAVEWQRARQPESEDKYGTTTSQLDADGSYFLYSRLRVDKSSWQRGDTYACVVMHEALHNHYTQKSISKPPGK
light: QAVVTQLSSVSGSLGQRVSLTCSGSSSNVGSHSVDWFQKLSESGLRIVIYGTRNRPSGVPDRFSGSKSGNTATLTITSLQTEDEADYYCATSDSTTMTYIFGDGTRLTALGQPKSAPSVTLFPPSTEELSTNKATVVCLINDFYPGSVNVVWKADGSTINQNVKTTQASKQSNSKYAASSYLTLTGSEWKSKSSYTCEVTHEGSTVTKTVKPSECS
B4: Anti-E2 7A4mut3 (antibody)
heavy: B3 heavy
light: B3 light with L20I

One assay has as its target E2-Albumin偶联物. Kind of assay: indirect ELISA, E2-Albumin coated 3 ug/ml, antibody 31.3 ng/ml.
In the case of B1, the OD450 amounted to 1.69 OD450.
On the same count and under the same terms, then B2, with 1.31 OD450; and B3, with 0.94 OD450; and B4, with 1.6 OD450.

Another assay has as its target E2-Albumin偶联物. Kind of assay: indirect ELISA, E2-Albumin coated 3 ug/ml, antibody 62.5 ng/ml. A general note: In an ELISA, binding on a coated surface is turned into a signal by an enzyme label.
In turn, B1 registered an OD450 of 1.94 OD450.
Same read-out and setting: then B2, with 2.12 OD450; and B3, with 1.52 OD450.
With B4, the OD450 was found to be 2.16 OD450.

A further assay addresses E2-Albumin偶联物. The assay can be described thus: biosensor (AMC sensor), antibody immobilised at 5 ug/ml, E2-Albumin in gradient.
What is called Kd is the constant that tells how readily two partners part at equilibrium. A low value points to tighter binding. By koff is commonly meant the rate constant with which the complex falls apart. Usually kon stands for the rate constant with which the complex forms. The low end stands for slow association, the high end for fast association. Molecule B1 registered a Kd of 0.188 nM, a koff of 0.00032 s⁻¹ and a kon of 1.7e+06 M⁻¹ s⁻¹.
B2 returned a Kd of 0.214 nM, a koff of 0.00044 s⁻¹ and a kon of 2.06e+06 M⁻¹ s⁻¹.
As for B3, the Kd amounted to 9.84 nM, the koff amounted to 0.00022 s⁻¹ and the kon was found to be 22400 M⁻¹ s⁻¹.
B4 registered a Kd of 0.234 nM, a koff of 0.00038 s⁻¹ and a kon of 1.63e+06 M⁻¹ s⁻¹.

The target of a further assay is E2-Albumin偶联物. The assay can be described thus: indirect ELISA, E2-Albumin coated 3 ug/ml, antibody 125 ng/ml.
As to B1, the OD450 stood at 2.25 OD450.
Same read-out and setting: then B2, with 2.26 OD450; and B3, with 2.06 OD450; and B4, with 2.27 OD450.

The next assay deals with E2-Albumin偶联物. The assay can be described thus: indirect ELISA, E2-Albumin coated 3 ug/ml, antibody 0.00 ng/ml (blank).
Turning to B1, the OD450 came out at 0.065 OD450.
The same measure, in the same setting: then B2, with 0.047 OD450; and B3, with 0.01 OD450; and B4, with 0.023 OD450.

The next assay concerns the target E2-Albumin偶联物. Kind of assay: indirect ELISA, E2-Albumin coated 3 ug/ml, antibody 15.63 ng/ml.
B1 yielded an OD450 of 0.953 OD450.
With B2, the OD450 turned out to be 0.806 OD450.
On the same count and under the same terms, then B3, with 0.366 OD450.
The same measure, in the same setting: in the case of B4 it was 0.979 OD450.

The target in another assay is E2-Albumin偶联物. Kind of assay: indirect ELISA, E2-Albumin coated 3 ug/ml, antibody 7.81 ng/ml.
On to B1, for which the OD450 stood at 0.497 OD450.
Still for that read-out and setting: then B2, with 0.461 OD450; and B3, with 0.22 OD450; and B4, with 0.508 OD450.
